B1: Inactive peptidyl-prolyl cis-trans isomerase FKBP6 (Homo sapiens), O75344 (parent)
chain: MGGSALNQGVLEGDDAPGQSLYERLSQRMLDISGDRGVLKDVIREGAGDLVAPDASVLVKYSGYLEHMDRPFDSNYFRKTPRLMKLGEDITLWGMELGLLSMRRGELARFLFKPNYAYGTLGCPPLIPPNTTVLFEIELLDFLDCAESDKFCALSAEQQDQFPLQKVLKVAATEREFGNYLFRQNRFYDAKVRYKRALLLLRRRSAPPEEQHLVEAAKLPVLLNLSFTYLKLDRPTIALCYGEQALIIDQKNAKALFRCGQACLLLTEYQKARDFLVRAQKEQPFNHDINNELKKLASCYRDYVDKEKEMWHRMFAPCGDGSTAGES
partner: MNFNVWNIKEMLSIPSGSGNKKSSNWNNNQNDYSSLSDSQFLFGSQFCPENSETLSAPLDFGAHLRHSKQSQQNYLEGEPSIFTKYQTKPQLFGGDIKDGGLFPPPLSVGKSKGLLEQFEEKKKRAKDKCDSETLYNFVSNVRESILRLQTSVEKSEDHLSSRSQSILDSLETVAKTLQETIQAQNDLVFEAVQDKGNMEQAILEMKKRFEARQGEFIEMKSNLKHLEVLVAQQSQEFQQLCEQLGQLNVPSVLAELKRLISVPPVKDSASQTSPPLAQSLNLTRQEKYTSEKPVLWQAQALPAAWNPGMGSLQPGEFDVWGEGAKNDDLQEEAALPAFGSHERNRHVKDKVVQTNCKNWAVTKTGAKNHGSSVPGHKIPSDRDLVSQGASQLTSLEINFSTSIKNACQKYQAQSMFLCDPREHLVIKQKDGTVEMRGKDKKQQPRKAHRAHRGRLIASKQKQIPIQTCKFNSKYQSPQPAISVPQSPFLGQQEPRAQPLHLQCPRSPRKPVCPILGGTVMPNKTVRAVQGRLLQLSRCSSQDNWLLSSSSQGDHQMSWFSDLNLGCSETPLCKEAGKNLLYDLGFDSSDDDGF
B2: Islet cell autoantigen 1 (Homo sapiens), Q05084 (parent)
chain: MSGHKCSYPWDLQDRYAQDKSVVNKMQQKYWETKQAFIKATGKKEDEHVVASDADLDAKLELFHSIQRTCLDLSKAIVLYQKRICFLSQEENELGKFLRSQGFQDKTRAGKMMQATGKALCFSSQQRLALRNPLCRFHQEVETFRHRAISDTWLTVNRMEQCRTEYRGALLWMKDVSQELDPDLYKQMEKFRKVQTQVRLAKKNFDKLKMDVCQKVDLLGASRCNLLSHMLATYQTTLLHFWEKTSHTMAAIHESFKGYQPYEFTTLKSLQDPMKKLVEKEEKKKINQQESTDAAVQEPSQLISLEEENQRKESSSFKTEDGKSILSALDKGSTHTACSGPIDELLDMKSEEGACLGPVAGTPEPEGADKDDLLLLSEIFNASSLEEGEFSKEWAAVFGDGQVKEPVPTMALGEPDPKAQTGSGFLPSQLLDQNMKDLQASLQEPAKAASDLTAWFSLFADLDPLSNPDAVGKTDKEHELLNA
B3: Myotubularin-related protein 9 (Homo sapiens), Q96QG7 (parent)
chain: MEFAELIKTPRVDNVVLHRPFYPAVEGTLCLTGHHLILSSRQDNTEELWLLHSNIDAIDKRFVGSLGTIIIKCKDFRIIQLDIPGMEECLNIASSIEALSTLDSITLMYPFFYRPMFEVIEDGWHSFLPEQEFELYSSATSEWRLSYVNKEFAVCPSYPPIVTVPKSIDDEALRKVATFRHGGRFPVLSYYHKKNGMVIMRSGQPLTGTNGRRCKEDEKLINATLRAGKRGYIIDTRSLNVAQQTRAKGGGFEQEAHYPQWRRIHKSIERYHILQESLIKLVEACNDQTHNMDRWLSKLEASNWLTHIKEILTTACLAAQCIDREGASILIHGTEGTDSTLQVTSLAQIILEPRSRTIRGFEALIEREWLQAGHPFQQRCAQSAYCNTKQKWEAPVFLLFLDCVWQILRQFPCSFEFNENFLIMLFEHAYASQFGTFLGNNESERCKLKLQQKTMSLWSWVNQPSELSKFTNPLFEANNLVIWPSVAPQSLPLWEGIFLRWNRSSKYLDEAYEEMVNIIEYNKELQAKVNILRRQLAELETEDGMQESP
partner: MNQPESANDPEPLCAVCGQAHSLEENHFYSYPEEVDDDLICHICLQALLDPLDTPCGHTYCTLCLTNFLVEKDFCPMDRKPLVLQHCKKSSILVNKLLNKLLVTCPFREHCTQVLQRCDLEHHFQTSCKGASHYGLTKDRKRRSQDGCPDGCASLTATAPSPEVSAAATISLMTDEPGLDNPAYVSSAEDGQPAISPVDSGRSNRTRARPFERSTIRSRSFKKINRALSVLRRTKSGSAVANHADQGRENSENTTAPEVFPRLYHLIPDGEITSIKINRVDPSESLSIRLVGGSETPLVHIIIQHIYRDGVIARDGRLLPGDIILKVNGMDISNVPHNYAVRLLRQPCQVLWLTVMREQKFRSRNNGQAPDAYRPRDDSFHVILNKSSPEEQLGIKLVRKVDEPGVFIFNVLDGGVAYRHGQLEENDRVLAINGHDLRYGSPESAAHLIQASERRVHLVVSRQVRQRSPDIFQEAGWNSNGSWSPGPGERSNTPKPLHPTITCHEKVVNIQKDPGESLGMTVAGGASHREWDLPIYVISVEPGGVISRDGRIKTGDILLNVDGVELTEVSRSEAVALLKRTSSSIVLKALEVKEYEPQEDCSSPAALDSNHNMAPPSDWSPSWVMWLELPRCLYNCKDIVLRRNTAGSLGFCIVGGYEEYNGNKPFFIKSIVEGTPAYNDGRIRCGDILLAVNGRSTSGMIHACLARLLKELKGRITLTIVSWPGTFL
B4: Myotubularin-related protein 9 (Homo sapiens), Q96QG7 (parent)
chain: B3 chain
B5: Myotubularin-related protein 9 (Homo sapiens), Q96QG7 (parent)
chain: B3 chain
partner: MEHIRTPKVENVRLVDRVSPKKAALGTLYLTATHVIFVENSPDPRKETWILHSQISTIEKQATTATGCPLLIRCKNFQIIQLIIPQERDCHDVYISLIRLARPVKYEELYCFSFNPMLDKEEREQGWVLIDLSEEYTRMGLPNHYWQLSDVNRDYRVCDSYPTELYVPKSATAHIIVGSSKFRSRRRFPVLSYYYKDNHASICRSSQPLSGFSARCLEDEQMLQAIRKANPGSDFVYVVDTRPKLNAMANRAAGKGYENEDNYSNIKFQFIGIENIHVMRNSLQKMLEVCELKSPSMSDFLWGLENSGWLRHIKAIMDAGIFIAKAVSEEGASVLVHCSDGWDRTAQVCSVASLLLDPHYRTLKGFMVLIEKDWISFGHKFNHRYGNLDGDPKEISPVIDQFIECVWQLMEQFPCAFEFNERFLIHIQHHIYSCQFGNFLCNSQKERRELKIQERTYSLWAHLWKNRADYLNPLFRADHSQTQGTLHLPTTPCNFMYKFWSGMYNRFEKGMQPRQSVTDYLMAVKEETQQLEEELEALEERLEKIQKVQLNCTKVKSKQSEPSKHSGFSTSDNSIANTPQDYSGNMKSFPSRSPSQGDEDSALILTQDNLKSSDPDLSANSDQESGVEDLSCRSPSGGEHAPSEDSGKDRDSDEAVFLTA

Variants of: B1
Conditions: with iho1_human IHO1, Q8IYA8

Variant | effect of a mutation on the interaction
L246F | disrupting interaction strength

Variants of: B2
Conditions: with rab2a_human RAB2A

Variant | effect of a mutation on the interaction
Q443R | disrupting interaction strength

Variants of: B2
Conditions: with rab2b_human RAB2B

Variant | effect of a mutation on the interaction
Q443R | disrupting interaction strength

Variants of: B3
Conditions: with lnx1_human LNX1, Q8TBB1

Variant | effect of a mutation on the interaction
R359S | with no effect

Variants of: B4
Conditions: with emil1_human EMILIN1, Q9Y6C2
emil1_human EMILIN1, Q9Y6C2, sequence (Q9Y6C2 whole entry): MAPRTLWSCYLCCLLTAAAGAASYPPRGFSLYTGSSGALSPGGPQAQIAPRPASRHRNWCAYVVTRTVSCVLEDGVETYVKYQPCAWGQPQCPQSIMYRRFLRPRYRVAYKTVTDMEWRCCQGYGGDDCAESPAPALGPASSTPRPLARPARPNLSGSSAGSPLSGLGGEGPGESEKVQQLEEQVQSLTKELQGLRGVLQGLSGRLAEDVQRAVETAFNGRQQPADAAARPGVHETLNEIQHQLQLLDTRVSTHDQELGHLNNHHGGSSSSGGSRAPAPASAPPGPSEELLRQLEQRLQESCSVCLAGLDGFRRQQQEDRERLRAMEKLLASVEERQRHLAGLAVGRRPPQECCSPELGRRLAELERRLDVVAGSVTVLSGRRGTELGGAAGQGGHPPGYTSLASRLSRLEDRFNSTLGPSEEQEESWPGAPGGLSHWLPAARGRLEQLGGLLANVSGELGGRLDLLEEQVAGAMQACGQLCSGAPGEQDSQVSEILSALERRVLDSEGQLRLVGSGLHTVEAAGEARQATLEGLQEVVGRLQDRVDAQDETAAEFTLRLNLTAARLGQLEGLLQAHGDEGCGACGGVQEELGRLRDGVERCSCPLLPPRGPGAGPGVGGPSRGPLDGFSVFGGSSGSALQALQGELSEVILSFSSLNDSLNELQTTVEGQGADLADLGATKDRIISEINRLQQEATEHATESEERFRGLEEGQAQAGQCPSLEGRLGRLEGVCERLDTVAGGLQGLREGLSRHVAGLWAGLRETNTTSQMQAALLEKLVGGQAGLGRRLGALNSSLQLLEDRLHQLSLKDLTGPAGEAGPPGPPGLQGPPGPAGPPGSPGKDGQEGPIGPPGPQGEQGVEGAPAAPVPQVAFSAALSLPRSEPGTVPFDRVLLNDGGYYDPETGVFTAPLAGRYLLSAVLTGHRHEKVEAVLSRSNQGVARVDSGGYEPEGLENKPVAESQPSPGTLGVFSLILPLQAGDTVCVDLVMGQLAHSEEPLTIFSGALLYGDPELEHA

Variant | effect of a mutation on the interaction
R359S | with no effect

Variants of: B5
Conditions: with mtmr7_human MTMR7, Q9Y216

Variant | effect of a mutation on the interaction
R359S | with no effect
